One molecule from paper PMC7305185, “Non-cooperative 4E-BP2 folding with exchange between eIF4E-binding and binding-incompatible states tunes cap-dependent translation inhibition” (Nature Communications, 2020) can be followed below.

For this assay, the target named is T1, eukaryotic translation initiation factor 4E (eIF4E) (UniProt P06730 1-217).
T1 construct: eukaryotic translation initiation factor 4E; Expressed from a pET SUMO vector; The SUMO tag was cleaved with Ulp1 and removed on Ni-NTA; source: E. coli BL21-CodonPlus (DE3)-RIPL, purified (Ni-NTA, S75 gel filtration)
Nature of the assay: ITC; MicroCal ITC200; data collection as detailed in ref. 11; KD as mean and standard deviation of repeat samples (n = 3 for 5p-4E-BP2, n = 2 or 1 for the other variants). Conditions: both partners purified.

T1 sequence (P06730 whole entry): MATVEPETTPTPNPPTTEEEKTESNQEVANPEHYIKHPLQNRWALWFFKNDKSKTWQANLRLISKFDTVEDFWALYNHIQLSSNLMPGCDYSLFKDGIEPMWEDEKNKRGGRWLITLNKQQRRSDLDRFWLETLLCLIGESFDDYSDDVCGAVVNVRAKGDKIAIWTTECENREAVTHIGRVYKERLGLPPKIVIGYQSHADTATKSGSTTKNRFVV

B1: five-phospho 4E-BP2 (pT37/pT46/pS65/pT70/pS83) (natural protein, UniProt Q13542 1-120, looked up)
chain: MSSSAGSGHQPSQSRAIPTRTVAISDAAQLPHDYCTTPGGTLFSTTPGGTRIIYDRKFLLDRRNSPMAQTPPCHLPNIPGVTSPGTLIEDSKVEVNNLNNLNNHDRKHAVGDDAQFEMDI
modifications: phosphothreonine at 37, 46 and 70; phosphoserine at 65 and 83
notes: also called 5p-4E-BP2; WT 5p-4E-BP2; source: E. coli BL21-CodonPlus (DE3)-RIPL, purified (Ni-NTA, S75 gel filtration); phosphorylated with Erk2, purified again by gel filtration
With B1, the affinity, expressed as Kd, was 15 µM.
